Where a chain is given by its changes, count along the chain named. Values belong to the binder of their own block, whether it stands above or below them.
Assays:
[1] = target: T1, recombinant human CD127 extracellular domain (CD127 ECD) (human) (UniProt P16871); assay: ELISA: recombinant human CD127 ECD coated at 5 ug/ml, 9B7 hybridoma material titrated, HRP goat anti-mouse IgG detection
T1 sequence: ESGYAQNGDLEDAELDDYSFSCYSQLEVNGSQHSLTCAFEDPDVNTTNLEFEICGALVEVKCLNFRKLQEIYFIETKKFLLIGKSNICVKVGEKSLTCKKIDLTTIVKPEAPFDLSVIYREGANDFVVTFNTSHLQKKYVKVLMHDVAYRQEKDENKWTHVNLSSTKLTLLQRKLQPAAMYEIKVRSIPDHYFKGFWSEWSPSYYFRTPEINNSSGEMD

[2] = target: T1, recombinant human CD127 extracellular domain (CD127 ECD) (human); assay: SPR (Biacore T100), CD127 ECD amine-coupled on CM5, antibody (supernatant material) as analyte
[3] = target: T1, recombinant human CD127 extracellular domain (CD127 ECD) (human); assay: SPR (Biacore T100, 25 °C), antibody captured on rabbit anti-mouse IgG, CD127 ECD as analyte
[4] = target: T2, human CD127 expressed on cells (CD127-transfected CHO cells; PBMC and CD4+ T cells in functional assays) (human, UniProt P16871 21-459); assay: Flow cytometry cross-competition on CHO-CD127 cells: unlabelled antibody titrated against fluorescence-labelled BD anti-CD127 antibody (#552853)
T2 construct: The construct transfected into CHO is not described further; also called CHO-CD127; IL-7Rα expressed on CHO
T2 chain: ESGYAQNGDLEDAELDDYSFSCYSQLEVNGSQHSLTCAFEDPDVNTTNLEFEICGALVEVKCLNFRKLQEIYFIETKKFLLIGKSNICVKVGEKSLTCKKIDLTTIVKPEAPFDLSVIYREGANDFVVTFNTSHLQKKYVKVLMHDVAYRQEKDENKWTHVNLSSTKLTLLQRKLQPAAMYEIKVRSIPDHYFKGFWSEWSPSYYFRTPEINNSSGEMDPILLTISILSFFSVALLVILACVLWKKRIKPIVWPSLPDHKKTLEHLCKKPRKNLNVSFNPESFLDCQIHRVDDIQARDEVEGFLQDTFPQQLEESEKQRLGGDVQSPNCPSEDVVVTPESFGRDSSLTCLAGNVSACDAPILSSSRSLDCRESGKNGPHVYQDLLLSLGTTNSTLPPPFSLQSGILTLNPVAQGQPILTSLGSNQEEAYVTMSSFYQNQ
Procedure: CHO-CD127 cells were prepared and washed by cold DPBS for 3 times. […] The antibody mixtures were then incubated with the CHO-CD127 cells for 30 min at 4° C. […] (FIG. 15).

[5] = target: T1, recombinant human CD127 extracellular domain (CD127 ECD) (human); assay: blocking of IL-7/IL-7Rα binding; competitor IL-7; method not given
[6] = target: T1, recombinant human CD127 extracellular domain (CD127 ECD) (human); assay: affinity for the IL-7Rα ECD (profile summary; SPR)

B1: mAb 9B7 (murine anti-human CD127 monoclonal antibody) (antibody, IgG1, V domains shown)
VH: QVQLQESGPGLVAPSQSLSITCTVSGFSLSRYNVHWVRQPPGKGLEWLGMIWDGGSTDYNSALKSRLSITKDNSKSQVFLKMNSLQTDDTAMYYCARNRYESGMDYWGQGTTVTVSS
VL: DIVMTQTPSSLTVTAGEKVTMSCKSSQSLLNSGNRKNYLTWYQQKPGQSPKLLIYWASTRESGVPDRFTGSGSGTDFTLIISSVQAEDLAVYYCQNDYTYPFTFGSGTKLEIKR
- EC50 (read off the curve) [1]: 0.6 µg/mL
- Kd [2]: 0.556 nM

B2: mAb 6C5 (murine anti-human CD127 monoclonal antibody) (antibody, mouse IgG1, V domains shown)
VH: EVKLLESGGGLVQPGGSLKLSCAASGFAFSAYWMSWVRQAPGKGLEWIGEINPDSSTINCTPSLKDKFIISRDNAKNTLSLQMNKVRSEDTALYYCARRLRPFWYFDVWGAGTTVTVSS
VL: DVLMTQTPLSLPVSLGDQASISCRSSQSIVQSNGNTYLEWYLQKPGQSPKLLIYKVSNRFSGVPDRFSGSGSGTDFTLKISRVEAEDLGVYYCFQGSHVPRTFGGGTKLEIK
notes: also called Antibody 6C5
- Kd [3]: 24.4 nM
- koff [3]: 0.000436 s⁻¹
- kon [3]: 17900 M⁻¹ s⁻¹
- IC50 (read off the curve) [4]: ~70 µg/mL

B5: mAb GR34 (reverse engineered clone of R34.34) (antibody, mouse IgG1, V domains shown)
VH: EVQLQQSGPELVKPGASMKISCKASGYSFTGYTMNWVKQSHGKNLEWIGLINPYSGITSYNQNFKGKATLTVDKSSSTAYMELLNLTSEDSAVYYCARGDGNYWYFDVWGAGTTVTVSS
VL: EIILTQSPAITAASLGQKVTITCSASSSVSYMHWYQQKSGTSPKPWIYEISKLASGVPARFSGSGSGTSYSLTISSMEAEDAAIYYCQYWNYPYTFGGGTKLEIK
- Kd [3]: 15.3 nM
- koff [3]: 0.000875 s⁻¹
- IC50 [5]: 2.29 µg/mL

The remaining binders from weak to strong by Kd [3], led by results:

- Kd [3]: 7.74 nM
- koff [3]: 0.000146 s⁻¹
- kon [3]: 18900 M⁻¹ s⁻¹
- IC50 [5]: 1.92 µg/mL
- Kd [6]: 7.99 nM
- koff [6]: 0.000334 s⁻¹
B3: mAb 6A3 (murine anti-human CD127 monoclonal antibody) (antibody, mouse IgG1, V domains shown)
VH: DVQLQESGPGLVKPSQSLSLTCTVTGYSITTDYAWNWIRQFPGNKLEWMGYIFYSGSTTYTPSLKSRISITRDTSKNQFFLQLNSVTTEDTATYYCARGGYDVNYFDYWGQGTTLTVSS
VL: DIQMTQSPASQSASLGESVTITCLASQTIGAWLAWYQQKPGKSPQLLIYAATRLADGVPSRFSGSGSGTKFSFKISSLQAEDFVSYYCQQFFSTPWTFGGGTKLEIK

- Kd [3]: 3.44 nM
- koff [3]: 0.000251 s⁻¹
- IC50 [5]: 1.79 µg/mL
B4: mAb 1A11 (murine anti-human CD127 monoclonal antibody) (antibody, mouse IgG1, V domains shown)
VH: B5 VH with V12L, S55N, I57V, N63K, D73A, N85S
VL: B5 VL with I3V, S30T, A59V, Y89E
